B1: C124A/E195S/P196D: RLuc mutant C124A/E195S/P196D (protein)
chain: MASKVYDPEQRKRMITGPQWWARCKQMNVLDSFINYYDSEKHAENAVIFLHGNAASSYLWRHVVPHIEPVARCIIPDLIGMGKSGKSGNGSYRLLDHYKYLTAWFELLNLPKKIIFVGHDWGAALAFHYSYEHQDKIKAIVHAESVVDVIESWDEWPDIEEDIALIKSEEGEKMVLENNFFVETMLPSKIMRKLSDEEFAAYLEPFKEKGEVRRPTLSWPREIPLVKGGKPDVVQIVRNYNAYLRASDDLPKMFIESDPGFFSNAIVEGAKKFPNTEFVKVKGLHFSQEDAPDEMGKYIKSFVERVLKNEQ
B2: F33R/I34M/C124A: RLuc mutant F33R/I34M/C124A (protein)
chain: B1 chain with F33R, I34M, S195E, D196P
B3: E44G/C124A: RLuc mutant E44G/C124A (protein)
chain: B1 chain with E44G, S195E, D196P
B4: A54P/A55T/C124A: RLuc mutant A54P/A55T/C124A (protein)
chain: B1 chain with A54P, A55T, S195E, D196P
B5: A54P/C124A: RLuc mutant A54P/C124A (protein)
chain: B1 chain with A54P, S195E, D196P
B6: C124A/F199M: RLuc mutant C124A/F199M (protein)
chain: B1 chain with S195E, D196P, F199M
B7: C124A/F180A: RLuc mutant C124A/F180A (protein)
chain: B1 chain with F180A, S195E, D196P
B8: C124A/M191L: RLuc mutant C124A/M191L (protein)
chain: B1 chain with M191L, S195E, D196P
B9: F116L/C124A: RLuc mutant F116L/C124A (protein)
chain: B1 chain with F116L, S195E, D196P
B10: A54G/A55G/C124A: RLuc mutant A54G/A55G/C124A (protein)
chain: B1 chain with A54G, A55G, S195E, D196P
B11: M185V/Q235A: destabilized RLuc double mutant M185V/Q235A for use as a reporter gene (protein)
chain: B1 chain with A124C, M185V, S195E, D196P, Q235A
modifications: Chemically synthesized Renilla Luciferase
notes: destabilized RLuc double mutant M185V/Q235A for use as a reporter gene
B12: M185V: destabilized RLuc single mutant M185V (without C124A) (protein)
chain: B1 chain with A124C, M185V, S195E, D196P
modifications: Chemically synthesized Renilla Luciferase
B13: C124A/F261L/F262L: RLuc mutant C124A/F261L/F262L (protein)
chain: B1 chain with S195E, D196P, F261L, F262L

We go through 13 molecules from patent publication US7842469B2, “Bioluminescence resonance energy transfer (BRET) systems and methods of use thereof” (Stanford University, priority 2005, dated 2010).

Positions count from the first letter of the chain named. Names may count otherwise.

The first series in a line: Bioluminescence emission spectra. The note with it: emission spectrum with native coelenterazine. The format is physicochemical. How it is done: (§1) Serum stability measurements were done by mixing 0.5 μl dilute Luciferase with either 20 μl mouse serum or 50 μl rat serum (Equitech-Bio, Kerrville, Tex.) placing the sample in a 37° C. incubator, and removing aliquots for activity testing. To calculate serum half-lives, mono-exponential decay curves were fit to the serum stability data using a Nelder/Mead Simplex non-linear least squares minimization algorithm provided by the Octave numerical programming language. Emission spectra at ambient temperature were measured using a Triax 320 (Horiba Jobin Yvon, Edison, N.J.), which incorporates an optical grating device with a liquid N2 cooled CCD detector.
With B1, the “Wavelength (nm) mean” value stood at 498 nm and the “Wavelength (nm) peak” value came to 482 nm.

With B2, the “Wavelength (nm) mean” value came out at 497 nm and the “Wavelength (nm) peak” value was 481 nm.

With B3, the “Wavelength (nm) mean” value was found to be 502 nm and the “Wavelength (nm) peak” value worked out at 486 nm.

With B4, the “Wavelength (nm) mean” value was 483 nm and the “Wavelength (nm) peak” value stood at 470 nm.

For B5, the “Wavelength (nm) mean” value was found to be 482 nm and the “Wavelength (nm) peak” value stood at 468 nm.

Regarding B6, the “Wavelength (nm) mean” value amounted to 495 nm and the “Wavelength (nm) peak” value is listed as 480 nm.

As to B7, the “Wavelength (nm) mean” value stood at 504 nm and the “Wavelength (nm) peak” value was 488 nm.

In the case of B8, the “Wavelength (nm) mean” value stood at 496 nm and the “Wavelength (nm) peak” value stood at 480 nm.

On to B9, for which the “Wavelength (nm) mean” value is recorded as 502 nm and the “Wavelength (nm) peak” value is 486 nm.

As for B10, the “Wavelength (nm) mean” value was found to be 492 nm and the “Wavelength (nm) peak” value was 476 nm.

The next series in a line: Serum stability in rat serum at 37° C. The format is in vitro ADME. The note with it: mono-exponential fit. Here is the method: as §1
With B11, the “Serum τ1/2 (h) rat” value amounted to 0.2 h.

For the molecule B1, the “Serum τ1/2 (h) rat” value was determined as 0.7 h.

In the case of B2, the “Serum τ1/2 (h) rat” value is 0.3 h.

As to B3, the “Serum τ1/2 (h) rat” value is recorded as 3.3 h.

For B4, the “Serum τ1/2 (h) rat” value was determined as 129 h.

With B5, the “Serum τ1/2 (h) rat” value turned out to be 13 h.

Consider B6, for which the “Serum τ1/2 (h) rat” value turned out to be 6.0 h.

Consider B7, for which the “Serum τ1/2 (h) rat” value is reported as 1.6 h.

For the molecule B12, the “Serum τ1/2 (h) rat” value came out at 0.3 h.

As for B8, the “Serum τ1/2 (h) rat” value is reported as 5.1 h.

As for B9, the “Serum τ1/2 (h) rat” value is recorded as 9.4 h.

Take B10: the “Serum τ1/2 (h) rat” value is 3.0 h.

A further series in a line: Luciferase activity of purified RLuc mutants (light output integrated over 10 s, luminometer). The following applies: benzyl-coelenterazine; relative to native enzyme. The format is biochemical. An excerpt: Luminometer Calibration: Light measurements were made using a Turner 20/20 and later a Turner 20/20n luminometer (Turner Designs, Sunnyvale, Calif.). The luminometers were calibrated to absolute units (photons/s) using the luminol light standard performed in dimethyl sulfoxide (DMSO). No corrections were applied for the spectral sensitivity of the luminometer, as the spectral peak of luminol chemiluminescence in DMSO (486 nm) is close to the spectral peak of Renilla Luciferase bioluminescence (482 nm).
Characterization of Renilla Luciferase Mutants: Luciferase activity was measured by adding 1 μl of sample (diluted as necessary in EB containing 1% HSA) to 100 μl room temperature 100 mM sodium phosphate buffer (pH 7), manually adding 1 μl of 0.5 μg/μl coelenterazine or analog, manually mixing, and reading for 10 s in a luminometer. The time between the addition of the luciferin and the start of measurement was approximately 4 s.
For the molecule B11, the “Activity (relative to RLuc) bc” value worked out at 2.7.

For B1, the “Activity (relative to RLuc) bc” value amounted to 0.10.

In the case of B13, the “Activity (relative to RLuc) bc” value amounted to 0.00.

Consider B2, for which the “Activity (relative to RLuc) bc” value is listed as 0.15.

Take B3: the “Activity (relative to RLuc) bc” value is reported as 0.78.

For the molecule B4, the “Activity (relative to RLuc) bc” value came to 0.15.

Take B5: the “Activity (relative to RLuc) bc” value worked out at 0.04.

Take B6: the “Activity (relative to RLuc) bc” value is recorded as 0.44.

On to B7, for which the “Activity (relative to RLuc) bc” value is listed as 0.01.

Consider B12, for which the “Activity (relative to RLuc) bc” value was determined as 2.6.

In the case of B8, the “Activity (relative to RLuc) bc” value was found to be 0.99.

For B9, the “Activity (relative to RLuc) bc” value is recorded as 1.0.

Take B10: the “Activity (relative to RLuc) bc” value was 0.10.

The series is the same for the next values; noted with them: bisdeoxycoelenterazine; relative to native enzyme.
For B11, the “Activity (relative to RLuc) bdc” value came to 20.

Regarding B1, the “Activity (relative to RLuc) bdc” value was 0.15.

As to B13, the “Activity (relative to RLuc) bdc” value is given as 0.00.

For B2, the “Activity (relative to RLuc) bdc” value is recorded as 0.20.

B3: the “Activity (relative to RLuc) bdc” value worked out at 0.98.

Regarding B4, the “Activity (relative to RLuc) bdc” value worked out at 0.22.

Take B5: the “Activity (relative to RLuc) bdc” value is given as 0.06.

Take B6: the “Activity (relative to RLuc) bdc” value is 0.46.

Take B7: the “Activity (relative to RLuc) bdc” value turned out to be 0.01.

In the case of B12, the “Activity (relative to RLuc) bdc” value is recorded as 20.

In the case of B8, the “Activity (relative to RLuc) bdc” value was found to be 1.2.

For B9, the “Activity (relative to RLuc) bdc” value turned out to be 1.8.

Regarding B10, the “Activity (relative to RLuc) bdc” value is listed as 0.19.

The series is the same for the next values; noted with them: coelenterazine-cp; relative to native enzyme.
For B11, the “Activity (relative to RLuc) cp” value is listed as 14.

As for B1, the “Activity (relative to RLuc) cp” value was 0.12.

In the case of B13, the “Activity (relative to RLuc) cp” value was determined as 0.00.

As for B2, the “Activity (relative to RLuc) cp” value was determined as 0.16.

On to B3, for which the “Activity (relative to RLuc) cp” value was 0.74.

For B4, the “Activity (relative to RLuc) cp” value is given as 0.11.

As to B5, the “Activity (relative to RLuc) cp” value was 0.05.

With B6, the “Activity (relative to RLuc) cp” value is 0.53.

For the molecule B7, the “Activity (relative to RLuc) cp” value was 0.03.

For the molecule B12, the “Activity (relative to RLuc) cp” value was determined as 12.

Regarding B8, the “Activity (relative to RLuc) cp” value is 0.97.

On to B9, for which the “Activity (relative to RLuc) cp” value was found to be 1.3.

As for B10, the “Activity (relative to RLuc) cp” value is reported as 0.06.

The series is the same for the next values; noted with them: coelenterazine-n; relative to native enzyme.
In the case of B11, the “Activity (relative to RLuc) n” value came out at 7.1.

With B1, the “Activity (relative to RLuc) n” value was 0.10.

Consider B13, for which the “Activity (relative to RLuc) n” value came out at 0.00.

B2: the “Activity (relative to RLuc) n” value was 0.12.

In the case of B3, the “Activity (relative to RLuc) n” value is recorded as 0.66.

Consider B4, for which the “Activity (relative to RLuc) n” value came to 0.38.

As for B5, the “Activity (relative to RLuc) n” value came to 0.08.

With B6, the “Activity (relative to RLuc) n” value is on record as 0.49.

In the case of B7, the “Activity (relative to RLuc) n” value came to 0.01.

For the molecule B12, the “Activity (relative to RLuc) n” value came out at 4.1.

For B8, the “Activity (relative to RLuc) n” value is listed as 1.0.

For B9, the “Activity (relative to RLuc) n” value stood at 0.88.

As to B10, the “Activity (relative to RLuc) n” value is on record as 0.15.

The series is the same for the next values; noted with them: native coelenterazine.
Turning to B11, the “improvement in light output (activity) compared to native RLuc” value turned out to be 5 fold.

For B12, the “improvement in light output (activity) compared to native RLuc” value was “about 4 fold”.

Staying with this series, now noted: native coelenterazine; relative to native enzyme.
In the case of B11, the “Activity (relative to RLuc) native” value stood at 4.8.

For the molecule B1, the “Activity (relative to RLuc) native” value is recorded as 0.12.

For the molecule B13, the “Activity (relative to RLuc) native” value was found to be 0.00.

Consider B2, for which the “Activity (relative to RLuc) native” value is 0.15.

For B3, the “Activity (relative to RLuc) native” value stood at 0.94.

In the case of B4, the “Activity (relative to RLuc) native” value is 0.21.

For the molecule B5, the “Activity (relative to RLuc) native” value was found to be 0.05.

On to B6, for which the “Activity (relative to RLuc) native” value came out at 0.58.

For B7, the “Activity (relative to RLuc) native” value was 0.02.

In the case of B12, the “Activity (relative to RLuc) native” value came out at 4.4.

As to B8, the “Activity (relative to RLuc) native” value is 1.1.

Consider B9, for which the “Activity (relative to RLuc) native” value came out at 1.3.

With B10, the “Activity (relative to RLuc) native” value amounted to 0.12.

The next series is described as follows: Serum stability in mouse serum at 37° C. The format is in vitro ADME. The note with it: mouse serum, 37° C., mono-exponential fit. Here is the method: as §1
On to B11, for which the “Serum τ1/2 (h) mouse” value is reported as 0.5 h.

B1: the “Serum τ1/2 (h) mouse” value is given as 1.0 h.

B2: the “Serum τ1/2 (h) mouse” value was 0.3 h.

For the molecule B3, the “Serum τ1/2 (h) mouse” value is on record as 2.6 h.

As for B4, the “Serum τ1/2 (h) mouse” value stood at 119 h.

Consider B5, for which the “Serum τ1/2 (h) mouse” value stood at 14 h.

For B6, the “Serum τ1/2 (h) mouse” value is on record as 6.7 h.

Take B7: the “Serum τ1/2 (h) mouse” value stood at 1.6 h.

Turning to B12, the “Serum τ1/2 (h) mouse” value is reported as 0.8 h.

B8: the “Serum τ1/2 (h) mouse” value turned out to be 6.5 h.

For the molecule B9, the “Serum τ1/2 (h) mouse” value stood at 11 h.

Consider B10, for which the “Serum τ1/2 (h) mouse” value is given as 2.4 h.

The same series, now with this note: murine serum.
Regarding B11, the “stability (lability) compared to the native enzyme” value is reported as “half the stability”.

Staying with this series, now noted: murine serum; listed as double mutant.
For B11, the “stability (lability) compared to the native enzyme” value was “twice the lability”.
